Data: PMC6981973

Biological target: transferrin receptor (TfR) (human (endogenous in Caco-2)) (UniProt P02786)
Sequence (P02786 whole entry): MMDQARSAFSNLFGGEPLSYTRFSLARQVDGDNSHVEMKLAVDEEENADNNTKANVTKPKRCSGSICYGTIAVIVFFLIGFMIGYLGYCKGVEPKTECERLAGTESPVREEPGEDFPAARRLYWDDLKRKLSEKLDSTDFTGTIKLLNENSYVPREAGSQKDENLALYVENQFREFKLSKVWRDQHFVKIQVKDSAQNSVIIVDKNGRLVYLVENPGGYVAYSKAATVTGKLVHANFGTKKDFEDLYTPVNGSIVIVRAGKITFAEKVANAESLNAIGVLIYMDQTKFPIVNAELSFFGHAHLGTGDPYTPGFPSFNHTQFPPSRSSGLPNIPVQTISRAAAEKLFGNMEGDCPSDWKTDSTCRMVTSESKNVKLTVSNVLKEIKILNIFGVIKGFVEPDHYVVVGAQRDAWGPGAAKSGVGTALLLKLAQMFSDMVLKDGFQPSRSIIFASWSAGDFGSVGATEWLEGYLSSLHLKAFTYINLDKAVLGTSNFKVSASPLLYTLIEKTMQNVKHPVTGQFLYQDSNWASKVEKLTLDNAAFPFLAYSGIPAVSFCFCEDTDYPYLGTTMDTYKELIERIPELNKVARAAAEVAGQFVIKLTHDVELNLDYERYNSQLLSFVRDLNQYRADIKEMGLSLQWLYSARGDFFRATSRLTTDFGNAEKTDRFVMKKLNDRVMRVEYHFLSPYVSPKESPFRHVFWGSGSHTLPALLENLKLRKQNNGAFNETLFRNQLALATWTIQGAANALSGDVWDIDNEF

rFIX-Tf/Dithi, sequence (P02787 whole entry, looked up): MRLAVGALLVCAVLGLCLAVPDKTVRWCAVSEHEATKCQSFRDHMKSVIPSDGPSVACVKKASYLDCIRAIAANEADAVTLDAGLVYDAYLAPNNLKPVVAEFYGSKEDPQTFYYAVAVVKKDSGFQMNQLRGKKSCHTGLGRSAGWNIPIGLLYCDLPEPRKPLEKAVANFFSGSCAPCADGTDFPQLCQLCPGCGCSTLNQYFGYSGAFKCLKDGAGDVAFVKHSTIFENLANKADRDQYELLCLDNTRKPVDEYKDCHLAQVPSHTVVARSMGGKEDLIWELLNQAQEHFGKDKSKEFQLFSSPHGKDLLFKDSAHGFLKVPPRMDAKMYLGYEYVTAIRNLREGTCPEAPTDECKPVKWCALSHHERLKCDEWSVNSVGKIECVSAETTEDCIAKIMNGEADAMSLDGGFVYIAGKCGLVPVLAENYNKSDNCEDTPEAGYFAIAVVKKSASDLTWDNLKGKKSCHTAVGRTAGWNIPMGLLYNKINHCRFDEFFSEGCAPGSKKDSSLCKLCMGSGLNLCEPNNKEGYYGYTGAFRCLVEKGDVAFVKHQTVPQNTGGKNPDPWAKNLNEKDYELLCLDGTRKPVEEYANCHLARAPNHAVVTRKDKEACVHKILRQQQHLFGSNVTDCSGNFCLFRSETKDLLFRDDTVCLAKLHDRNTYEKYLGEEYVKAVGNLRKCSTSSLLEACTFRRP
rFIX-Tf/Dithi, sequence (P00740 whole entry, looked up): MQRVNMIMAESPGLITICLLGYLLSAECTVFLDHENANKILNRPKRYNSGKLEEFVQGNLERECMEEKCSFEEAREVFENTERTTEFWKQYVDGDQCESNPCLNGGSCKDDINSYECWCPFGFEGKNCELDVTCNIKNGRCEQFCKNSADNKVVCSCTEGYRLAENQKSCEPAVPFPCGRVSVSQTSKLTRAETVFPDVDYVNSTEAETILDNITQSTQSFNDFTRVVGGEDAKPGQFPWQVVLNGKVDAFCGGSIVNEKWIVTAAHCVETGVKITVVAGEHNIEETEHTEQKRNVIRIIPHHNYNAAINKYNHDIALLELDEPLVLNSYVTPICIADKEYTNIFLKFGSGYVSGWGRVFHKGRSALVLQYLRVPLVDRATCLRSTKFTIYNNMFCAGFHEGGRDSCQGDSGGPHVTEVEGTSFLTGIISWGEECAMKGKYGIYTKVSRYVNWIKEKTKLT

BeneFIX^®, a marketed coagulation factor IX (recombinant) product (enzyme)
specific (total minus nonspecific with 100-fold excess Tf) apical-to-basolateral transcytosis across Caco-2 monolayers, about 100 mIU/mL apical, 2, 4 and 6 h; protein transport rate at 6 h: 0.024%

rFIX-Tf/Dithi (from UniProt P00740 47-461; P02787 20-698)
specific apical-to-basolateral transcytosis across Caco-2 monolayers at 6 h, fold over BeneFIX: 4.4 fold
specific apical-to-basolateral transcytosis across Caco-2 monolayers, fold over FIX-Tf (LE dipeptide linker): 1.5 fold
